Results reported in the Human Domainome abundance scans (Beltran et al. 2025).

B1: Activity-dependent neuroprotector homeobox protein, residues 770 to 810; numbered along this chain, Q9H2P0 (parent)
chain: FLTKYFNKQPYPTRREIEKLAASLWLWKSDIASHFSNKRKK
B2: Homeobox protein cut-like 1, residues 548 to 629; numbered along this chain, P39880 (parent)
chain: GEEMDTAEIARQVKEQLIKHNIGQRIFGHYVLGLSQGSVSEILARPKPWNKLTVRGKEPFHKMKQFLSDEQNILALRSIQGR

Variants of: B1
Experiment: abundance fitness (aPCA) (normalised: wild type 0, dead -1); higher = more abundant; growth selection in yeast, the domain comes from the species named
Details: Homo sapiens

Abundance fitness of substitutions, site by site:
S36: P -0.047, C -0.006, A -0.049, M -0.037, Y -0.37, W -0.177
I31: M 0.056, W -0.129, R -0.205, D 0.022, K -0.276, C -0.075, G -0.129, S -0.154, V 0.16, L -0.043, A 0.109, T -0.061, N -0.153, Q -0.116, E -0.23, Y -0.189, F -0.197, P -0.098
K41: A -0.319, V -0.309, R -0.092, N -0.15, D -0.015, Q 0.153, T -0.128, M 0.082, E -0.092, I -0.277, P -0.188, C -0.261, H -0.214, Y -0.378, L -0.4, G -0.135, W 0.259
W25: P -0.176, M -0.009, T 0.141, C -0.14, Y -0.233, S 0.134, E 0.13, A 0.064, K 0.361, N -0.021, Q 0.068, L 0.097, F -0.168, H 0.071, R 0.254, V 0.133, D -0.159
N37: G 0.022, T -0.077, H -0.072, A -0.093, R -0.081, S -0.019, M 0.013, V -0.091, L 0.061, W 0.023, K 0.131, F -0.044, I 0.028, C -0.002, P -0.107, E -0.142, Q -0.141
S23: F -0.614, Q -0.404, K 0.262, G -0.182, D -0.002, M -0.36, W -0.091, L -0.211, T -0.075, A -0.177, E -0.116, N -0.074, C -0.119, I -0.432, Y -0.364, R 0.276, H -0.103, P -0.12, V -0.101
H34: S -0.02, C 0.069, V 0.117, M 0.043, K 0.022, G -0.043, R -0.085, I 0.068, E -0.275, D -0.388, N -0.107, P -0.01, Q -0.032, Y -0.151, A 0.006, T -0.128
K40: E -0.278, N -0.425, M -0.069, C -0.097, A -0.013, P -0.28, D -0.253, L -0.352, G -0.06, S -0.259, I -0.27, T 0.009, V -0.461, F -0.098, W -0.137, R -0.156
R39: L 0.031, V -0.185, N -0.012, E -0.249, C -0.189, A -0.076, F -0.157, Q -0.195, G -0.195, I -0.035, W 0.009, P -0.232, M 0.134, S -0.085
K28: G 0.048, C 0.317, Q -0.184, T 0.18, I 0.445, F 0.435, W 0.13, M 0.438, L 0.55, V 0.508, D -0.514, Y -0.443, R -0.188, E -0.463, P 0.257, A 0.333, H -0.421, S 0.028, N -0.244

Variants of: B2
Experiment: as above
Details: Homo sapiens

Abundance fitness: each site, then its substitutions
G1: D 0.029, A -0.064, K -0.035, C -0.026, E -0.036, H -0.289, I 0.049, F -0.104
